Results on 15 sequences are retold here after the DeepSol protein solubility set.

The data set is described as follows: soluble on expression in E. coli; label from the status in PepcDB or PDB records.
Take “MGHHHHHHSHMPPAAAGPLAGQPRKSSSSRRNAWGNLSYADLITKAIESSAEKRLTLSQIYEWMVKSVPYFKDKGDSNSSAGWKNSIRHNLSLHSKFIRVQNEGTGKSSWWMLNPEGGKSGKSPRRRAASMDNNSKFAKSRSRAAKKKA”: the “soluble on expression in E. coli” value is recorded as “soluble”.

Take “GSESKCPEELANYCDMLLRKTPLSKKLTSEEIEAKLKEVLKKLKYVQNKDVFMRYHKAHLTRRLILDISADSEIEENMVEWLREVGMPADYVNKLARMFQDIKVSEDLNQAFKEMHKNNKLALPADSVNIKILNAGAWSRSSEKVFVSLPTELEDLIPEVEEFYKKNHSGRKLHWHHLMSNGIITFKNEVGQYDLEVTTFQLAVLFAWNQRPREKISFENLKLATELPDAELRRTLWSLVAFPKLKRQVLLYEPQVNSPKDFTEGTLFSVNQEFSLIKNAKVQKRGKINLIGRLQLTTERMREEENEGIVQLRILRTQEAIIQIMKMRKKISNAQLQTELVEILKNMFLPQKKMIKEQIEWLIEHKYIRRDESDINTFIYMA”: the “soluble on expression in E. coli” value is reported as “soluble”.

As for “MKFVNFDEYKQLVDYFRNRLNPNYSSPTMLFIISITGMRASEAFGLVWDDIDFNNNTIKCRRTWNYRNKVGGFKKPKTDAGIRDIVIDDESMQLLKDFREQQKTLFESLGIKPIHDFVCYHPYRKIITLSALQNTLDHALKKLNISTPLTVHGLRHTHASVLLYHGVDIMTVSKRLGHASVAITQQTYIHIIKELENKDKDKIIELLMELLEHHHHHH”, the “soluble on expression in E. coli” value is “soluble”.

Take “MSLPINDQRFNGEDWINNPFFNLLSQHYLLANEHMNSLLENMEYGDENLAKRVRFFTRQYLDALSPANFIHTNPQLMAETLQSHGKNLLRGLHNLLSDVEAGSSRLIIKMTDTEAFKIGENLATTPGKVIFRNSMMELIQYCPRTTKAKSIPLLIVPPWINKYYILDLSPHNSLIRWLVEQGITVFIISWVNPDEEGHHHHHH”: the “soluble on expression in E. coli” value is given as “not soluble”.

For “ASGTTLNWTGRMLGNGTLVKEGAGTLALSGFNAHGGTVVNAGTVQISNDYGLGNGALTLNNSRLASTADIYAEAAATVNGNGTFDTANGTTLQWMGDIGGAGALVKTGAGTLLLGGDSLY”, the “soluble on expression in E. coli” value is given as “not soluble”.

Regarding “GLNFPTYDGKDRVVSLSEKNFKQVLKKYDLLCLYYHEPVSSDKVTQKQFQLKEIVLELVAQVLEHKAIGFVMVDAKKEAKLAKKLGFDEEGSLYILKGDRTIEFDGEFAADVLVEFLLDLIEDPVEIISSKLEVQAFERIEDYIKLIGFFKSEDSEYYKAFEEAAEHFQPYIKFFATFDKGVAKKLSLKMNEVDFYEPFMDEPIAIPNKPYTEEELVEFVKEHQRPTLRRLRPEEMFETWEDDLNGIHIVAFAEKSDPDGYEFLEILKQVARDNTDNPDLSILWIDPDDFPLLVAYWEKTFKIDLFRPQIGVVNVTDADSVWMEIPDDDDLPTAEELEDWIEDVLSGKINTEDDDEDDDDDDNSDEEDNDDSDDDDDE”, the “soluble on expression in E. coli” value is recorded as “soluble”.

Consider “MRVYYYMNIEELKRVIKDQREYLESLEKQKIIERELPFNVEQYLSKPNILAILGVRRSGKSTLGYLLVREKNFAYIDFSDDRLVNFTDFDTLTKAFYELYGDFTHVLIDEPQYVNGWELFVNRLRKEKSVIITGSNSSLLSGELASALTGRHVDLILFPFSFKEYLTFRGVKVDLYSTKSISLIKNELENYLKEGGFPETLSLGKRIIPSIYNDIITKDVIGRYKIRDVVKFKEFVNSMVKYYSTEISVRKLANLLKISTRTIEEWLNAIQESYLLFFVRRYSRSPKQFNGQRKVYVIDAGIVNYLTSFSYGGLMENVVAIQLLRKNQLEGIYYLRGEDYEVDFVDEKNGELIQVSYVSSQDEINRNEIRSLVKGSQITEFNKLTIVSWDLEDEIIVEGKKIRIVPLWKYLI”, for which the “soluble on expression in E. coli” value is given as “soluble”.

Consider “MEAYLKKLCFEYQVEEKEVKELLARMERVYLDKGETIASATMPEQSLYIIVSGILHTFTTQQGEDKTVRFLSEGDAILCYNTSKHSVKTLTRCVAYYISEDEIEELCATSITFSNLIRQMMEYQFYLKEEMSVNARKLTIRERYLSLLSEIPDILYRVPLKYITYYLGADVTSLGYLAGSCK”, for which the “soluble on expression in E. coli” value is recorded as “not soluble”.

With “MLKLQTLQALICIEEVGSLRAAAQLLHLSQPALSAAIQQLEDELKAPLLVRTKRGVSLTSFGQAFMKHARLIVTESRRAQEEIGQLRGRWEGHITFAASPAIALAALPLALASFAREFPDVTVNVRDGMYPAVSPQLRDGTLDFALTAAHKHDIDTDLEAQPLYVSDVVIVGQRQHPMANATRLAELQECRWAFSSAPRGPGAIIRNAFARYGLPEPKLGLVCESFLALPGVVAHSDLLTTMPRTLYERNAFKDQLCSIPLQDALPNPTIYVLRRHDLPVTPAAAGLIRWIQHHALQTGHHHHHH”, the “soluble on expression in E. coli” value is “soluble”.

As for “MKLDFSSGAKPLWSQMANIIKKRIEDGEYEIGCTLPSEMSFADEFNVSRITVRQALNRLMTDGYILRQRGKGTIVKRDKTSFSTRMQSSFKQLQDEYDKTTKTLISVNNVKASEDVAEVFDINPGDNVIMLERSVESKGKIITIYHNYISPKVGASLKDDFTGSFYKYLEMKGFYITSAKEVISAKISTAKDKEVFGFSNDRAMLLKTKYGYSDGVPVEITYGTYIADDYNIVIELV”, the “soluble on expression in E. coli” value is listed as “not soluble”.

“SSSIKVECVIKEKNEVGESPVWEEKDSSLLYVDITGQKVSRWSSLTKQIESMNTEKLVGCVVPRQAGGYVIAEGTRFAFVDWVKRSITAVAEVNEKPNTRFNDGKVDPAGRFFAGTMSMDMKPDVVDAALYNLQPDHSVVRHFDQVHLSNGLDWSLDHRVFYYIDSLAFMVEAFDYDIQTGGLSNRRTVYKMEKDEGIPDGMCIDTEGKLWVACFNGGRVLRIDPQTGKRLQTVKLPAERITSCCFGGKDYSDLYITSAYIGMDAEALAKQPEAGCTFKVTGLGVKGIPPYSYTG”: the “soluble on expression in E. coli” value is recorded as “soluble”.

For “MRVKEQLLTLRAYVPGKNIEEVKREYGLSKIVKLASNENPFGCSARVTEALTSLASQYALYPDGHAFELRTQVAKHLGVKAEQLLFGSGLDEVIQMISRALLHEGTNVVMANPTFSQYHHHAVIEGAEVREVSLKDGIHDLDAMLQQVDDQTKIVWICNPNNPTGTYVEKQKLLSFLESVPKSALVIMDEAYYEYAGAEDYPQTLPLLEKYENLMVLRTFSKAYGLAAFRIGYAVGNTELIGQLEVARLPFNTSTVAQSVALAALEDQAFLQECVKKNEEGLHQYYAFCKEYNVFYYPSQTNFIFLKLGIPGNEAFERLMKKGYIVRSGAAFGIDDGIRITVGLKEENDEIIELLKELVNEQVQKEETYS”, the “soluble on expression in E. coli” value was “soluble”.

In the case of “MPTYKLTYFNARGYAEAARILFHLADVPFEDFRMTHGDGTWEKLKDGAPFGQVPYLTVDGFDIPQSAAIIRYLANKFGYAGKTPEEQVWADAIVDQFKDFMGSFRERIMAHFAGKSQEEIAKITSEVVIPARDSYFKILNGLLEKSKSGFLVGDSITFADIVISENITTLEKNQLFVASEQPNLAALREKVYAIPAIRKWVEARPDTQY”, the “soluble on expression in E. coli” value was “not soluble”.

For “MSLSAKSSLKEVAELAGVGYATASRALSGKGYVSPQTREKVQAAAKELNYVPNQLAKALREHRSALVGVIVPDLSNEYYSESLQTIQQDLKAAGYQMLVAEANSVQAQDVVMESLISIQAAGIIHVPVVGSIAPEGIPMVQLTRGELGPGFPRVLCDDEAGFFQLTESVLGGSGMNIAALVGEESLSTTQERMRGISHAASIYGAEVTFHFGHYSVESGEEMAQVVFNNGLPDALIVASPRLMAGVMRAFTRLNVRVPHDVVIGGYDDPEWYSFVGAGITTFVPPHEEMGKEAVRLLVDLIENPELPTGDVVLQGQVILRGSSTHEGHHHHHH”, the “soluble on expression in E. coli” value was “soluble”.

On to “MVYFGRAKTLSHRHPNTGSGGCVFSLKTVLLYQQDSYLREFEARVEEASGGRVVLDRTAFHPGPHGGLDTDTGYIFYGDKRYRVVRAAVEGDVVAHYLDSDTATLEPGAVVKGVIDWERRYRMMRLHTFSHILAAVLYEKHDVLVTGGHITPDYGKDDFSIEGGGWREVIEEAFREANEIASRCIEVKVYWLPREEALKIPGIVKLANKLPPEVETLRIVEIPGVDVQADGGPHVRNTCEIGRVVITKLESKGKRRKRVYYTLEEALEPTPEAP”, for which the “soluble on expression in E. coli” value was “not soluble”.
